Each block holds one molecule with its values, some of them ahead of it. Where no end group is shown, it is not given here.
Experiments:
His-tagged human PCNA [1] = test: PCNA pull-down with biotinylated peptides; format: binding; settings: biotinylated peptide on streptavidin beads; purified His-tagged PCNA, 1 h at 4°C; 50 mM Tris-HCl pH 8, 150 mM NaCl, 1 mM DTT, 0.2% Triton X-; anti-PCNA western blot
From the text: (§1) Figure 4 ERCC6L2 contains an atypical PCNA-binding motif (A) ERCC6L2 colocalizes with PCNA at CENP-C-negative foci. U2OS cells transfected with YFP-ERCC6L2 were stained for CENP-C and PCNA after pre-extraction of soluble proteins. ERCC6L2-and PCNA-positive, but CENP-C negative foci (red arrows) are marked in zoomed images. (B) ERCC6L2 colocalizes with RPA at CENP-C-negative foci. U2OS cells transfected with YFP-ERCC6L2 were stained for CENP-C and RPA. ERCC6L2- and RPA-positive, but CENP-C-negative foci (red arrows) are marked in zoomed images. (C) Colocalization of the C-terminal ERCC6L2^701−1561 fragment with endogenous PCNA. (D) PCNA pull-down with biotinylated peptides. Biotinylated PIP-box and APIM motif peptides were bound to streptavidin beads and incubated with recombinant PCNA. Interactions were assayed by western blotting with PCNA antibody. Wild-type ZRANB3 PIP-box peptide (ZRANB3 PIP) was used as a positive control. Mutant ZRANB3 PIP-box peptide (Q519A, F525A, and F526A, ZRANB3 PIP^∗) served as a negative control. […] Interactions were assessed by western blotting against PCNA (shown on the right). […]
Custom synthetic biotinylated peptides were synthetised by Genscript and dissolved in 50 mM Tris-HCl pH 8, 150 mM NaCl. […] Finally, the beads were boiled in the SDS-PAGE loading buffer, and analyzed by anti-PCNA Western blotting (1:1000 dilution).

Polα = settings: cited from earlier work
From the text: Because centromeres impose specific challenges for DNA replication machinery, we next sought to address the impact of ERCC6L2 deficiency on the progression of DNA replication. […] However, further analyses, based on EdU incorporation over longer time frames, highlighted differences between the two cell lines. Loss of ERCC6L2 reduced efficiency of EdU incorporation in unperturbed c ...

His-tagged human PCNA [2] = biological target: T1, His-tagged human PCNA (human, UniProt P12004 1-261); test: pull-down; biotinylated peptides immobilised on magnetic streptavidin beads, incubated with purified His-tagged PCNA 1 h at 4°C in 50 mM Tris-HCl pH 8, 150 mM NaCl, 1 mM DTT, 0.2% Triton X-; anti-PCNA Western blot; settings: both partners purified
T1 construct: PCNA, human; cloned into the NdeI and XhoI sites of pET28a for the protein with N-terminal His-tag; The ITC methods say only 'PCNA'; the paragraph on purification of His-tagged PCNA describes the preparation for ITC; also called recombinant PCNA; source: E. coli Rosetta (pET28a), purified (Ni-NTA, Q-sepharose, Superdex S-200); not shown: His-tag, N-terminal, kept
T1 sequence (P12004 whole entry): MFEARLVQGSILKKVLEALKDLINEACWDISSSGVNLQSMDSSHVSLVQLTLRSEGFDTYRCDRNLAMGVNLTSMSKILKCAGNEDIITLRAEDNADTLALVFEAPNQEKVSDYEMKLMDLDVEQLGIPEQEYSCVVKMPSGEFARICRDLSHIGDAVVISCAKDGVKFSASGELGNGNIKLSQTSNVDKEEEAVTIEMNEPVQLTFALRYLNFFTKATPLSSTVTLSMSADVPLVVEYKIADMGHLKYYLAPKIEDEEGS

His-tagged human PCNA [3] = biological target: T1, His-tagged human PCNA; test: ITC; 25°C, PBS with 1 mM β-mercaptoethanol; 15 μM PCNA in the chamber, 215 μM ERCC6L2 aPIP peptide injected in 20 steps of 2 μL; single set of independent binding sites model; settings: both partners purified
CENP-A = test: Colocalization of YFP-ERCC6L2 constructs with CENP-A; format: cell-based, human; settings: U2OS cells; N(cells) > 1,400 for mutants
[4] = tested on: single-stranded DNA derived from α-satellite DNA sequence; test: EMSA, single-stranded DNA; format: binding; settings: His-tagged fragment; 2.5 nM labeled substrate; 30 min, room temperature; 50 mM Tris-HCl pH 7.5; 11, 22, 44, 88, 176 nM (legend Figure 1H)
[5] = tested on: double-stranded DNA derived from α-satellite DNA sequence; test: EMSA, double-stranded DNA; format: binding; settings: His-tagged fragment; 2.5 nM labeled substrate; 30 min, room temperature; 50 mM Tris-HCl pH 7.5; 11, 22, 44, 88, 176 nM (legend Figure 1H)
endogenous PCNA [6] = test: Colocalization of YFP-ERCC6L2 constructs with endogenous PCNA; format: cell-based, human; settings: YFP-tagged, U2OS cells
From the text: as §1
U2OS cells (ATCC) were grown in 24 well plates. […] Samples were analyzed by confocal microscopy using Olympus FV1200 or Zeiss 880 Airyscan microscopes, or using EVOS M7000 Imaging System. […]

His-tagged human PCNA [7] = biological target: T1, His-tagged human PCNA; test: pull-down; GST-tagged ERCC6L2 753-819 immobilised on GST-beads, incubated with purified His-tagged PCNA 1 h at 4°C in 50 mM Tris-HCl pH 8, 150 mM NaCl, 1 mM DTT, 0.2% Triton X-; Western blot against PCNA; settings: both partners purified
His-tagged human PCNA [8] = test: PCNA pull-down with GST-tagged fragment; format: binding; settings: GST-tagged fragment on GST beads, 1 h at 4°C, 50 mM Tris-HCl pH 8, 150 mM NaCl, 1 mM DTT, 0.2% Triton X-, western blot
endogenous PCNA [9] = test: Immunoprecipitation of Strep-tagged ERCC6L2 fragment, endogenous PCNA; format: binding, human; settings: 293T cells, Twin-Strep construct, StrepTactin beads, immunoblot

Molecule: ERCC6L2^790−811 peptide: atypical ERCC6L2 peptides (residues 790–811) containing the WT sequence (LLQCGFSKLLETKCKAVEDSDG; cysteine pairing not given here; also: biotinylated, position not given here; UniProt Q5T890 790-811, looked up, fragment)
- interaction with PCNA, pull-down (His-tagged human PCNA [1]): comparable to the one observed with the classical PIP-box peptide from ZRANB3

Molecule: O=C(O)c1ccc2cc(-c3ccc(O)c(C45CC6CC(CC(C6)C4)C5)c3)ccc2c1 [CD437]
- uncoupling of DNA synthesis (Polα): causes uncoupling of leading and lagging strand DNA synthesis

- binding result (His-tagged human PCNA [2]): binds
B1: Biotinylated aPIP ERCC6L2 peptide (residues 790–811) (peptide, UniProt Q5T890 790-811, looked up)
peptide: SKASSSPGQLTLLQCGFSKLLE
modifications: also: biotin, position not given here
notes: ERCC6L2, human, residues 790-811, wild-type atypical PIP-box (consensus Q-[FL]-x-L-x-Q-C-G-[FL]); also called ERCC6L2 aPIP; biotinylated ERCC6L2^790−811 peptide; source: synthetic peptide (Genscript)

- Kd (His-tagged human PCNA [3]): ~6 µM
B2: ERCC6L2^795−816 aPIP peptide (peptide, UniProt Q5T890 795-816, looked up)
peptide: SPGQLTLLQCGFSKLLETKCKA
notes: ERCC6L2, human, residues 795-816, atypical PIP-box; Used for ITC and for co-crystallisation with PCNA; also called ERCC6L2 aPIP peptide; aPIP(ERCC6L2); source: synthetic peptide (Genscript)

B3: YFP-ERCC6L2^1053−1247: YFP-tagged C-terminal ERCC6L2 fragment (protein, UniProt Q5T890 1053-1247, looked up, fragment)
chain: FSFSKQSHRPRTIRDRTSFSSKLPSHNKKNSTFIPRKPMKCSNEKVVNQEQSYESMDKFLDGVQEVAYIHSNQNVIGSSKAENHMSRWAAHDVFELKQFSQLPANIAVCSSKTYKEKVDADTLPHTKKGQQPSEGSISLPLYISNPVNQKKKKVYHTNQTTFIIGETPKGIRRKQFEEMASYFNSSSVNEFAKHI
modifications: YFP tag
notes: YFP-tagged C-terminal ERCC6L2 fragment
- colocalization with CENP-A (CENP-A): formed foci marked by the CENP-A protein

B4: ERCC6L2^1053−1247: purified His-tagged ERCC6L2 fragment containing the VIGS motif (protein, UniProt Q5T890 1053-1247, looked up, fragment)
chain: B3 chain
modifications: His tag
notes: purified His-tagged ERCC6L2 fragment containing the VIGS motif
- formation of nucleoprotein complexes with single-stranded DNA (EMSA) [4]: formed stable nucleoprotein complexes
- formation of nucleoprotein complexes with double-stranded DNA (EMSA) [5]: formed stable nucleoprotein complexes

B5: ERCC6L2^701−1247: C-terminal ERCC6L2 fragment (protein, UniProt Q5T890 701-1247, looked up, fragment)
chain: REGQVEAGIMTATTWLKEGPPAHKLEMPRQPDCQECRGTEQAAEPLAKEACDLCSDFSDEEPVGATGIKTAKNKAPDSSKASSSPGQLTLLQCGFSKLLETKCKAVEDSDGNTASDDESSDEQPTCLSTEAKDAGCEKNQDSLGTSKHQKLDNILNPKEKHIFYKSEKILEQNISSKSDEKKIKNTDKHCILQNVTESEDSDVICPTQYTTERFPDNSIRFKPPLEGSEDSETEHTVKTRNNDNSRNTDDKRNGIISKKLSPENTTLKSILKRKGTSDISDESDDIEISSKSRVRKRASSLRFKRIKETKKELHNSPKTMNKTNQVYAANEDHNSQFIDDYSSSDESLSVSHFSFSKQSHRPRTIRDRTSFSSKLPSHNKKNSTFIPRKPMKCSNEKVVNQEQSYESMDKFLDGVQEVAYIHSNQNVIGSSKAENHMSRWAAHDVFELKQFSQLPANIAVCSSKTYKEKVDADTLPHTKKGQQPSEGSISLPLYISNPVNQKKKKVYHTNQTTFIIGETPKGIRRKQFEEMASYFNSSSVNEFAKHI
modifications: YFP tag
notes: C-terminal ERCC6L2 fragment
- colocalization with endogenous PCNA (endogenous PCNA [6]): efficiently colocalized with endogenous PCNA

- binding result (His-tagged human PCNA [7]): binds
B6: GST-tagged ERCC6L2^753−819 fragment (domain or fragment, human, UniProt Q5T890 753-819, looked up)
chain: AAEPLAKEACDLCSDFSDEEPVGATGIKTAKNKAPDSSKASSSPGQLTLLQCGFSKLLETKCKAVED

B7: GST-tagged ERCC6L2^753−819: GST-tagged ERCC6L2 fragment (residues 753–819) expressed in E. coli (protein)
chain: B6 chain
modifications: left off: GST, end not stated, kept
notes: GST-tagged ERCC6L2 fragment (residues 753–819) expressed in E. coli
- interaction with PCNA, GST pull-down (His-tagged human PCNA [8]): The interaction with PCNA could be demonstrated

B8: ERCC6L2^701−1053: Strep-tagged ERCC6L2 fragment (protein)
chain: QGSCLTKDILEREGQVEAGIMTATTWLKEGPPAHKLEMPRQPDCQECRGTEQAAEPLAKEACDLCSDFSDEEPVGATGIKTAKNKAPDSSKASSSPGQLTLLQCGFSKLLETKCKAVEDSDGNTASDDESSDEQPTCLSTEAKDAGCEKNQDSLGTSKHQKLDNILNPKEKHIFYKSEKILEQNISSKSDEKKIKNTDKHCILQNVTESEDSDVICPTQYTTERFPDNSIRFKPPLEGSEDSETEHTVKTRNNDNSRNTDDKRNGIISKKLSPENTTLKSILKRKGTSDISDESDDIEISSKSRVRKRASSLRFKRIKETKKELHNSPKTMNKTNQVYAANEDHNSQFIDDYS
modifications: left off: Strep tag, end not stated, kept
notes: Strep-tagged ERCC6L2 fragment
- endogenous PCNA in immunocomplexes (endogenous PCNA [9]): detected

Reference: PMC12003248, “ERCC6L2 mitigates replication stress and promotes centromere stability” (Cell Reports, 2023)
